This note sets out measurements from patent publication US20050048527, “Endonuclease-substrate complexes” (Third Wave Technologies, Inc., published 2005).

Changes are numbered by the printed parent chain.

Common to all, as to assay: cleavage_in_vitro; rate vs Pfu FEN1
The target in one series is T1, Afu FEN1 (Archaeoglobus fulgidus, UniProt O29975 SEQ:1-336).
T1 sequence: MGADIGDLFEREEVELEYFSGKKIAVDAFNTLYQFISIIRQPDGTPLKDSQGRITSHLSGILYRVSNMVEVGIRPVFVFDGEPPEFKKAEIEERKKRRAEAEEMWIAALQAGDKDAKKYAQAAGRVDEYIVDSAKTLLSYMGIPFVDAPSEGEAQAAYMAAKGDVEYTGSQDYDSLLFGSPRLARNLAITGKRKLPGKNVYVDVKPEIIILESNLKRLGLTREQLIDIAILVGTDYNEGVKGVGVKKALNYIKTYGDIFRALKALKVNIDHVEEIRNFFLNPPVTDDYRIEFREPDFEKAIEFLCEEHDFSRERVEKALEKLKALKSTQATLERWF
How it is done:
(§1) For the evaluation of chimeric enzymes, standard tests were performed to measure the performance and specificity of the enzymes. […] 10 μl reactions are run at 59 C for between 5 to 60 minutes depending on the enzyme. Reactions are stopped by the addition of 10 μl of 95% formamide, 0.02% methyl violet. 1 μl of the mixture is run on a denaturing 20% acrylamide gel and electrophoresed for 15 minutes or until good separation is achieved between cleaved and uncleaved probe. The gels are scanned using an FMBIO fluorescent gel scanner and the bands are quantified with FMBIOAnalysis software. Cleavage rates are determined from the percent probe cleaved. Cleavage rate for the INVADER substrate is defined as the number of probe molecules cleaved per target molecule per minute. In Table 5, below, the cleavage rates for the mutant enzymes are compared to the cleavage rates for unmodified Pfu FEN1 enzyme on the INVADER assay and X-structure substrates.
(§2) The X-structure substrate is used to determine the amount of background cleavage an enzyme will carry out in an INVADER reaction. It mimics the structure created by uncut primary probe and secondary FRET cassette in the INVADER squared reaction. […] 10 μl reactions are run at 59 C for between 3 to 30 minutes depending on the enzyme. Reactions are stopped by the addition of 10 μl of 95% formamide, 0.02% methyl violet. 1 μl of the mixture is run on a denaturing 20% acrylamide gel and electophoresed for 15 minutes or until good separation is achieved between cleaved and uncleaved probe. The gels are scanned using an FMBIO fluorescent gel scanner and the bands are quantified with FMBIOAnalysis software. Cleavage rates are determined from the percent probe cleaved.

A further series deals with T2, Pfu Y33F FEN1 (Pyrococcus furiosus, UniProt O93634 SEQ:1-340, Y33F).
T2 sequence: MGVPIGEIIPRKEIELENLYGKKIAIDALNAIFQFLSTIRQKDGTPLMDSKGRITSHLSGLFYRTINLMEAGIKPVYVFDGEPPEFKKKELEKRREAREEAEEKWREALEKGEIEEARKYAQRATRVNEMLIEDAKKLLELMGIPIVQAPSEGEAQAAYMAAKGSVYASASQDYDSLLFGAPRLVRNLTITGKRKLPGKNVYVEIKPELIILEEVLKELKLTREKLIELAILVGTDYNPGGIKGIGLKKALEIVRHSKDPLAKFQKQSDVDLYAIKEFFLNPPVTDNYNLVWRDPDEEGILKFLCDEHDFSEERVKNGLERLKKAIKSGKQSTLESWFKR
The following applies: label: 5'-biotin target; 5'-TET probe; hairpin target-INVADER with overlapping probe flap. The protocol:
as §1, §2

For a further series, the target named is T3, Pho4M FEN1 (Pyrococcus horikoshii, UniProt O50123 SEQ:1-343).
T3 chain: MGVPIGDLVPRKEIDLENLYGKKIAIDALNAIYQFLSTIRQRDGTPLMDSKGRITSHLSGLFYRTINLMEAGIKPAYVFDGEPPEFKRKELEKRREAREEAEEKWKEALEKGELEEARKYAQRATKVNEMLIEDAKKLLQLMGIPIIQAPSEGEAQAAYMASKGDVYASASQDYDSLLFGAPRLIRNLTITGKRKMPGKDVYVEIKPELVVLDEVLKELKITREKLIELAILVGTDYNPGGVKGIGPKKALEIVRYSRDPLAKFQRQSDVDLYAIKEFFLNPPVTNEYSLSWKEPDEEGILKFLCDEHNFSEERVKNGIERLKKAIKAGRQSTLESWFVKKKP
The protocol: as §1, §2

The next series deals with T4, Pho1M FEN1 (Pyrococcus horikoshii, UniProt O50123 SEQ:1-343).
T4 chain: T3 chain with E103L, E110A, E113N
How it is done: as §1, §2

Another series addresses T5, Pfu1M FEN1 (Pyrococcus furiosus, UniProt O93634 SEQ:1-340).
T5 chain: T2 sequence with F33Y, E82K
How it is done: as §1, §2

Setting [1] is: label: 5'-biotin target, 5'-TET probe, hairpin target-INVADER with overlapping probe flap.

B1: INVADER substrate 594-12-1/203-91-1 (structured_DNA)
DNA 1: TTTTTCACGGCAGTTGGTGCGCCTCGGAACGAGGCGCACA
DNA 2: TTTTCAACTGCCGTGA
In the case of B1, the cleavage rate was 0.52 with Afu FEN1 (setting [1]); 0.96 with Pfu Y33F FEN1; 1.3 with Pho4M FEN1 (setting [1]); 1.1 with Pho1M FEN1 (setting [1]); 0.83 with Pfu1M FEN1 (setting [1]).

B2: X-structure 203-81-2/203-91-2 (structured_DNA)
DNA 1: TTTTCAACTGCTTAGAGAATCTAAGCAGTTGGTGCGCCTCGTTAA
DNA 2: AACGAGGCGCACATT
modifications: 3'-NH2 on first strand
As for B2, the cleavage rate with Afu FEN1 (label: 5'-TET, X-structure) stood at 0.5; in the series with Pho4M FEN1 (label: 5'-TET, X-structure) it was 2.2; in the series with Pho1M FEN1 (label: 5'-TET, X-structure) it was 18; with Pfu1M FEN1 (label: 5'-TET, X-structure) it was 0.85.
